{"source": "patent US10471162B2", "about": "“Collagen targeted imaging probes” (priority 2014, dated 2019)", "key": {"rat tail collagen": {"molecular_target": "T1, rat tail collagen (Rattus norvegicus, UniProt P02454+P02466)", "T1 construct": "from tissue; host or cells: rat tail", "T1 sequence (P02454 152-1207 limits assumed)": "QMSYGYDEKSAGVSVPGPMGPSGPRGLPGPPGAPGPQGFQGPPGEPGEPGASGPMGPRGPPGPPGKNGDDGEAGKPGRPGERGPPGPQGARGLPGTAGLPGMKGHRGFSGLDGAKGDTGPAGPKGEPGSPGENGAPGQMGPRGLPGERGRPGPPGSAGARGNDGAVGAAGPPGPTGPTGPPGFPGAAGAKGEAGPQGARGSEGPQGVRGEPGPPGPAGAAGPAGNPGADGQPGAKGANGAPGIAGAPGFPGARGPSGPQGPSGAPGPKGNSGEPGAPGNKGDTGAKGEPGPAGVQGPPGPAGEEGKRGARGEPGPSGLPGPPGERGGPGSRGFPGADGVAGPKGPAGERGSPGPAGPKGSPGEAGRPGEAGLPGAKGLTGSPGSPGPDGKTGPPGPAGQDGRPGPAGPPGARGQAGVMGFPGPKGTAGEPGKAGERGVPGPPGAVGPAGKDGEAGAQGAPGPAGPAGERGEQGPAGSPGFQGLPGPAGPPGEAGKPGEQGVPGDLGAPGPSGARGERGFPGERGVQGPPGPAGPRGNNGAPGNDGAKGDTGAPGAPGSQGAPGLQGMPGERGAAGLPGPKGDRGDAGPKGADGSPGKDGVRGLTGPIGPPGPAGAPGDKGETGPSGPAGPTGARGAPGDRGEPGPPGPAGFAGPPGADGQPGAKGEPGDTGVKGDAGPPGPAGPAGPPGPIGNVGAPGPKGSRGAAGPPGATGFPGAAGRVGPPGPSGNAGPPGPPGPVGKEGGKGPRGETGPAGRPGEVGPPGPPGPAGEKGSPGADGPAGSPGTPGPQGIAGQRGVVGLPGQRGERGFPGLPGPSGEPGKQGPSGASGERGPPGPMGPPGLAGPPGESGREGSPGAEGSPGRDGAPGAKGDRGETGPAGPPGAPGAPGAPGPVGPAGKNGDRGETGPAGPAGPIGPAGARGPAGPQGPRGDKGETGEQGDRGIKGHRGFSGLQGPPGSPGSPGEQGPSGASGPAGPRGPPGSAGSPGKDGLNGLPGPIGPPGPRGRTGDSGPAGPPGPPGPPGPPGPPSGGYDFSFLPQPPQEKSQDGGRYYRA", "T1 sequence (P02466 86-1125 limits assumed)": "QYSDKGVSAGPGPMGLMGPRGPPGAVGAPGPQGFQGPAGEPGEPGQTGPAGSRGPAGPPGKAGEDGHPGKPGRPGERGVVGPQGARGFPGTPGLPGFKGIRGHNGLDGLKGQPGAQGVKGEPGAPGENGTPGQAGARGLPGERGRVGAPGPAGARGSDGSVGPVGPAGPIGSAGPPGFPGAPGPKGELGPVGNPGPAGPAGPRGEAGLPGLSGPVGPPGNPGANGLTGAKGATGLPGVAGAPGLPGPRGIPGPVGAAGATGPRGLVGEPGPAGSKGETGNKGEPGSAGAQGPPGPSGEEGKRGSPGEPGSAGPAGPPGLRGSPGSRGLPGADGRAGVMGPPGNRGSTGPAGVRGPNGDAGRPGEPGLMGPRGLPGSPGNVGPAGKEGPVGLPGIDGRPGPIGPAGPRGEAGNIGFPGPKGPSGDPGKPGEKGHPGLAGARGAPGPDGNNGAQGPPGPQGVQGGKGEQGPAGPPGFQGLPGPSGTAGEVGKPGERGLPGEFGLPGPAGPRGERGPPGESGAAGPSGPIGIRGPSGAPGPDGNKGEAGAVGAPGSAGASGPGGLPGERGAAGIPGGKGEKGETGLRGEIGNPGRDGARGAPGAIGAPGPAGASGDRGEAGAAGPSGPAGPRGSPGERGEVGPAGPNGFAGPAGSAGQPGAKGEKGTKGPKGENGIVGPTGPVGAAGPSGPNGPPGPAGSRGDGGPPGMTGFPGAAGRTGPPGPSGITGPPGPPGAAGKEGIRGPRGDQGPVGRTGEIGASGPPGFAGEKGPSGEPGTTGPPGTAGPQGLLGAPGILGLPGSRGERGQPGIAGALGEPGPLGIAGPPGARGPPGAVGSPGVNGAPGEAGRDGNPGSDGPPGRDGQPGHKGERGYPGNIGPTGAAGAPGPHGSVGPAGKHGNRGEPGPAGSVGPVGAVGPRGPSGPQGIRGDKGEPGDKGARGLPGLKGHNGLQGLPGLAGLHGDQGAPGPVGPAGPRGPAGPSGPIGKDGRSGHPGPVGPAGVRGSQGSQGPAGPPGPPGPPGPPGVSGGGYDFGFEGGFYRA", "assay": "rat tail collagen-binding assay", "conditions": "2 hours at room temperature, single binding site model", "method": "Binding isotherms were obtained by following a method previously reported. (Caravan, P., Das, B., Dumas, S., Epstein, F. H., Helm, P. A., Jacques, V., Koerner, S., Kolodziej, A., Shen, L., Sun, W., Zhang, Z., Angewandte Chemie, 2007, 119(43), 8319-8321.) Briefly, increasing concentrations of a mixture of ^63/65Cu-CBP(n) and ^64Cu-CBP(n) were added to collagen containing wells. […] An aliquot of each solution was reserved as a measure of the total concentration. The plates were incubated on a shaker table (300 rpm) for 2 hours at room temperature to allow the compound to bind. After 2 hours, the supernatant from each well (with or without collagen) was assayed for ^64Cu content. The relative amount of free, unbound compound in the sample supernatants and the amount of compound in the reserved (total) sample were determined by using a gamma counter. The bound concentration is [Total]−[Free]. The concentration of ^63/65Cu-CBP(n) was less than the collagen concentration and the data were fit to a model of a single binding site with dissociation constant, Kd."}, "[1]": {"tested_on": "pulmonary fibrosis, C57/BL6 mice (bleomycin or sham)", "assay": "in vivo", "format": "in vivo, mouse", "conditions": "in vivo, iv", "method": "(§1) Pulmonary fibrosis was induced in 7-8-week-old male C57/BL6 mice by transtracheal administration of bleomycin (BM; 2.5 U/kg) in 50 μL of PBS under direct vision using a small cervical incision. Sham animals received only PBS. Animals were placed in a small-animal PET/SPECT/CT scanner (Triumph; TriFoil Imaging), equipped with inhalation anesthesia and heating pad. Each animal was anesthetized with isoflurane (4% for induction, 2-2.5% for maintenance in medical air) and body temperature was kept at 37-38° C. using a heating pad. The femoral vein was cannulated for intravenous delivery of the PET agent. Each mouse was injected with approximately 0.1 mL and 20-50 μCi of ^64Cu-CBP(n), 0.1 mL and 20-50 μCi of ^68Ga-CBP(n) and 0.1 mL and 10-20 μCi of Al^18F-CBP(n) in a 18 mM solution of sucrose in water, followed by saline flush. […] The lungs, blood, urine, heart, liver, left rectus femoris muscle, spleen, small intestine, kidneys, left femur bone were collected from all animals. The tissues were weighed, and radioactivity in each tissue was measured on a gamma counter (CobraII Auto gamma; Packard). The radioactivity in the lung was reported as percent injected dose per gram corrected with the average sham weight, which was calculated by dividing the counts of ^64Cu per average sham tissue weight in gram by the total of counts of the injected dose. The radioactivity in every other tissue was reported as percent injected dose per gram (% ID/g), which was calculated by dividing the counts of ^64Cu per gram of tissue by the total of counts of the injected dose. A p-value of less than 0.05 was considered significant. Uncertainties are expressed as the standard error of the mean."}, "in vivo": {"assay": "in vivo", "format": "in vivo, mouse", "conditions": "male, C57/BL6, mouse, in vivo, iv, total radioactivity, Biodistribution % ID/g, sm. intestine", "method": "as §1"}, "[2]": {"tested_on": "pulmonary fibrosis, C57/BL6 mice (bleomycin or sham)", "conditions": "mouse, in vivo", "method": "Pulmonary fibrosis was induced in 7-8-week-old male C57/BL6 mice by transtracheal administration of bleomycin (BM; 2.5 U/kg) in 50 μL of PBS under direct vision using a small cervical incision. Sham animals received only PBS. Animals were placed in a small-animal PET/SPECT/CT scanner (Triumph; TriFoil Imaging), equipped with inhalation anesthesia and heating pad. Each animal was anesthetized with isoflurane (4% for induction, 1-1.5% for maintenance in medical air). After placement of an in-dwelling catheter in the femoral vein for probe administration, mice were positioned in the PET-CT and the probe was given as a bolus as the PET acquisition began. Mice were imaged continuously by PET for 120 minutes. […] Instrument calibration was performed with phantoms containing small known amounts of radioactivity. […] Reconstructed PET/CT data were quantitatively evaluated using AMIDE software package (Loening and Gambhir, 2003). […] The radioactivity concentration within organs was obtained from mean pixel values within the VOI volume and converted to counts per milliliter per minute and then divided by the injected dose (ID) to obtain an imaging VOI-derived percentage of the injected radioactive dose per cubic centimeter of tissue (% ID/cc). […] Instrument calibration was performed with phantoms containing small known amount of radioactivity. […]"}, "[3]": {"conditions": "rat, in vivo", "method": "The pharmacokinetics and metabolic stability of the probes were evaluated in Adult male Wistar rats. The right femoral vein was cannulated for intravenous delivery of the PET agent and the right femoral artery was cannulated for blood sampling. Each animal was injected with approximately 50-70 μCi of ^64Cu-CBP(n) diluted in 0.2-0.3 mL with an 18 mM solution of sucrose in water, followed by saline flush. After probe injection, several blood draws were collected at 0, 2, 5, 10, 15, 30, 60 and 120 minutes post injection into ethylenediaminetetraacetic acid (EDTA) blood tubes. Blood was weighed, and radioactivity in the blood was measured on a gamma counter to assess clearance of total ^64Cu. The serum was isolated by centrifugation of the blood (10 minutes, 4950 rpm) and proteins were precipitated with a mixture of cold methanol/acetonitrile (1/1). Solids were removed by centrifugation and the supernatant was injected onto an analytic HPLC column. The eluent was collected every 30 seconds, and the activity of each fraction was measured using a gamma counter. The result was compared with standards of pure probe and probe immediately isolated from plasma (t=0 sample)."}}, "data": [{"smiles": "CC(C)C[C@H](NC(=O)[C@@H]1CSSC[C@H](NC(=O)[C@H](Cc2c[nH]cn2)NC(=O)[C@H](Cc2c[nH]c3ccccc23)NC(=O)[C@H](CCCCNC(=O)CNC(=O)CCC(C(=O)O)N2CCN(CC(=O)O)CCN(CC(=O)O)CC2)NC(=O)CNC(=O)CCC(C(=O)O)N2CCN(CC(=O)O)CCN(CC(=O)O)CC2)C(=O)N[C@@H]([C@@H](C)O)C(=O)N[C@@H]([C@@H](C)O)C(=O)N[C@@H](CCCCNC(=O)CCC(C(=O)O)N2CCN(CC(=O)O)CCN(CC(=O)O)CC2)C(=O)N[C@@H](Cc2ccccc2)C(=O)N2CCC[C@H]2C(=O)N[C@@H](Cc2c[nH]cn2)C(=O)N[C@@H](Cc2c[nH]cn2)C(=O)N[C@@H](Cc2ccc(O)cc2)C(=O)N1)C(=O)N[C@@H](Cc1ccc(O)cc1)C(=O)N[C@@H](Cc1ccc(-c2ccccc2)cc1)C(N)=O", "note": "(single isomer, unassigned) [CBP7]", "values": [{"measurement": "Kd", "setting": "rat tail collagen", "value": "2400 ± 1500", "unit": "nM"}, {"measurement": "Biodistribution % ID/g, sm. intestine", "setting": "[1]; male, C57/BL6, mouse, 2 h", "value": "0.877 ± 0.077", "unit": "% ID/g"}, {"measurement": "route of excretion", "setting": "[1]; mouse", "value": "excreted mainly through the kidneys"}, {"measurement": "tissue uptake at 2 h", "setting": "in vivo", "value": "0.853 ± 0.246", "unit": "%ID/g"}, {"measurement": "Mean PET activity in heart and muscle, BM-treated vs sham, in words", "setting": "[2]", "value": "not significantly different"}, {"measurement": "metabolic stability compared with CBP(n) probes with a single NODAGA chelator", "setting": "[3]", "value": "more metabolically stable"}]}]}
